How the values were obtained:
[1] = biological target: T1, beta-2 microglobulin (UniProt P61769 21-119); experiment: BLI
[2] = biological target: T1, beta-2 microglobulin; experiment: BLI; remark: listed apart in the source
[3] = biological target: T2, green fluorescent protein (UniProt P42212 2-238 = GFP); experiment: SPR
[4] = biological target: GFP-K166R; experiment: SPR
[5] = biological target: GFP-K131S; experiment: SPR
[6] = biological target: GFP-K41R; experiment: SPR
[7] = biological target: GFP-K162R; experiment: SPR
[8] = biological target: GFP-K140R; experiment: SPR
[9] = biological target: T2, green fluorescent protein; experiment: SPR; remark: listed apart in the source

koff [1] | Kd [2] | Kd [3] | Kd [4] | koff [4] | Kd [5] | koff [5] | Kd [6] | koff [6] | Kd [7] | koff [7] | Kd [8] | koff [8] | koff [9] | Binder
0.018 s⁻¹ | 105 nM |  |  |  |  |  |  |  |  |  |  |  |  | nanobody 24 (VHH) VHH: QVQLQESGGGSVQAGGSLRLSCAASGYTDSRYCMAWFRQAPGKEREWVARINSGRDITYYADSVKGRFTFSQDNAKNTVYLQMDSLEPEDTATYYCATDIPLRCRDIVAKGGDGFRYWGQGTQVTVSS
 |  | 1.11 nM | 1.11 nM | 0.000175 s⁻¹ | 1.16 nM | 0.000168 s⁻¹ | 1.16 nM | 0.000174 s⁻¹ | 1.26 nM | 0.000171 s⁻¹ | 1.05 nM | 0.000169 s⁻¹ | 0.000188 s⁻¹ | αGFP-S54C (VHH) VHH: QVQLVESGGALVQPGGSLRLSCAASGFPVNRYSMRWYRQAPGKEREWVAGMSCAGDRSSYEDSVKGRFTISRDDARNTVYLQMNSLKPEDTAVYYCNVNVGFEYWGQGTQVTVSS

— publication PMC12395305 (2025)
